Assay results as given in patent US20220064329A1 (Novo Nordisk, published 2022).
Numbering of substitutions follows the chain as printed. Names may count otherwise.

T1: recombinant human activated Factor VII (FVIIa) (human, UniProt P08709 61-212; P08709 213-466, ten glutamate residues of the Gla domain may be gamma-carboxylated)
T1 construct: chains tethered by a disulfide bond; also called Factor VIIa; rFVIIa
T1 sequence 1: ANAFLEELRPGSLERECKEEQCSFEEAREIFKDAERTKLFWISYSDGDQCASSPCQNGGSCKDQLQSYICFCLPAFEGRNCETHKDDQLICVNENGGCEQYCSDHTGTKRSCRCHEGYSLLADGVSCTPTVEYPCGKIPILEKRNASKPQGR
T1 sequence 2: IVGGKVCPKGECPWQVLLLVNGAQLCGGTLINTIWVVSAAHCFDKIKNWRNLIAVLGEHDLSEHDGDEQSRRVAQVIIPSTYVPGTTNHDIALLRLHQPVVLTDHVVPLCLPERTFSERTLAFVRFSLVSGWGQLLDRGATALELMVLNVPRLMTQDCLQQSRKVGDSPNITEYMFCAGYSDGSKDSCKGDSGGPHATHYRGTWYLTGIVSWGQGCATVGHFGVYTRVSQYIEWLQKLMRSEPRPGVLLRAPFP

B1: VH SEQ ID NO 578 / VL SEQ ID NO 430 (antibody, IgG4, V domains shown)
VH: QVQLQESGPGLVKPSDTLSLTCAVSGYSISSDSAWSWIRQPPGKGLEWIGYIQYSGSTNYNPSLKSRVTMSVDTSKNQFSLKLSSVTALDTAVYYCARSVNYYGNSFAVGPWGQGTLVTVSS
VL: EIVLTQSPATLSLSPGERATLSCRASQGVSDYLAWYQQKPGQAPRLLIKYASQPATGIPARFSGSGSGTDFTLTISSLEPEDFGVYYCQNGHSFPLTFGQGTKLEIK
notes: humanized 11F2; IgG4 S228P/kappa
B2: VH SEQ ID NO 586 / VL SEQ ID NO 382 (antibody, IgG4, V domains shown)
VH: B1 VH with P111Y
VL: B1 VL with V29L, A34H, Q42E, G84A
notes: as for B1
B3: VH SEQ ID NO 586 / VL SEQ ID NO 358 (antibody, IgG4, V domains shown)
VH: B1 VH with P111Y
VL: B1 VL with V29I, A34H, A51T, G84A
notes: as for B1
B4: VH SEQ ID NO 578 / VL SEQ ID NO 486 (antibody, IgG4, V domains shown)
VH: B1 VH
VL: B1 VL with A34H
notes: as for B1
B5: VH SEQ ID NO 594 / VL SEQ ID NO 318 (antibody, IgG4, V domains shown)
VH: B1 VH with G45K
VL: B1 VL with V29I, A34H, Q42E, A51T, G84A
notes: as for B1
B6: VH SEQ ID NO 586 / VL SEQ ID NO 342 (antibody, IgG4, V domains shown)
VH: B1 VH with P111Y
VL: B1 VL with V29I, A34H, A51T, T69R, G84A, Q100A, I106L
notes: as for B1
B7: VH SEQ ID NO 594 / VL SEQ ID NO 382 (antibody, IgG4, V domains shown)
VH: B1 VH with G45K
VL: B1 VL with V29L, A34H, Q42E, G84A
notes: as for B1
B8: VH SEQ ID NO 594 / VL SEQ ID NO 478 (antibody, IgG4, V domains shown)
VH: B1 VH with G45K
VL: B1 VL with A34H, G84A, N90Q
notes: as for B1
B9: VH SEQ ID NO 594 / VL SEQ ID NO 486 (antibody, IgG4, V domains shown)
VH: B1 VH with G45K
VL: B1 VL with A34H
notes: as for B1
B10: VH SEQ ID NO 578 / VL SEQ ID NO 494 (antibody, IgG4, V domains shown)
VH: B1 VH
VL: B1 VL with A34H, F83V, G84A
notes: as for B1
B11: VH SEQ ID NO 586 / VL SEQ ID NO 310 (antibody, IgG4, V domains shown)
VH: B1 VH with P111Y
VL: B1 VL with V29I, G84A
notes: as for B1
B12: VH SEQ ID NO 578 / VL SEQ ID NO 454 (antibody, IgG4, V domains shown)
VH: B1 VH
VL: B1 VL with A34H, Q42E, G84A
notes: as for B1
B13: VH SEQ ID NO 586 / VL SEQ ID NO 366 (antibody, IgG4, V domains shown)
VH: B1 VH with P111Y
VL: B1 VL with V29L, Q42E, G84A
notes: as for B1
B14: VH SEQ ID NO 586 / VL SEQ ID NO 414 (antibody, IgG4, V domains shown)
VH: B1 VH with P111Y
VL: B1 VL with G84A
notes: as for B1
B15: VH SEQ ID NO 594 / VL SEQ ID NO 326 (antibody, IgG4, V domains shown)
VH: B1 VH with G45K
VL: B1 VL with V29I, A34H, Q42E, A51T, Q100A, I106L
notes: as for B1
B16: VH SEQ ID NO 586 / VL SEQ ID NO 318 (antibody, IgG4, V domains shown)
VH: B1 VH with P111Y
VL: B1 VL with V29I, A34H, Q42E, A51T, G84A
notes: as for B1
B17: VH SEQ ID NO 586 / VL SEQ ID NO 326 (antibody, IgG4, V domains shown)
VH: B1 VH with P111Y
VL: B1 VL with V29I, A34H, Q42E, A51T, Q100A, I106L
notes: as for B1
B18: VH SEQ ID NO 586 / VL SEQ ID NO 502 (antibody, IgG4, V domains shown)
VH: B1 VH with P111Y
VL: B1 VL with A34H, A51T, G84A
notes: as for B1
B19: VH SEQ ID NO 586 / VL SEQ ID NO 494 (antibody, IgG4, V domains shown)
VH: B1 VH with P111Y
VL: B1 VL with A34H, F83V, G84A
notes: as for B1
B20: VH SEQ ID NO 586 / VL SEQ ID NO 430 (antibody, IgG4, V domains shown)
VH: B1 VH with P111Y
VL: B1 VL
notes: as for B1
B21: VH SEQ ID NO 586 / VL SEQ ID NO 406 (antibody, IgG4, V domains shown)
VH: B1 VH with P111Y
VL: B1 VL with G84A, Q100A
notes: as for B1
B22: VH SEQ ID NO 602 / VL SEQ ID NO 310 (antibody, IgG4, V domains shown)
VH: B1 VH with D16Q, A23T, Y27G, M70I, L89A, P111Y
VL: B1 VL with V29I, G84A
notes: as for B1
B23: VH SEQ ID NO 594 / VL SEQ ID NO 342 (antibody, IgG4, V domains shown)
VH: B1 VH with G45K
VL: B1 VL with V29I, A34H, A51T, T69R, G84A, Q100A, I106L
notes: as for B1
B24: VH SEQ ID NO 586 / VL SEQ ID NO 462 (antibody, IgG4, V domains shown)
VH: B1 VH with P111Y
VL: B1 VL with A34H, G84A, Q100A
notes: as for B1
B25: VH SEQ ID NO 586 / VL SEQ ID NO 334 (antibody, IgG4, V domains shown)
VH: B1 VH with P111Y
VL: B1 VL with V29I, A34H, G84A
notes: as for B1
B26: VH SEQ ID NO 594 / VL SEQ ID NO 358 (antibody, IgG4, V domains shown)
VH: B1 VH with G45K
VL: B1 VL with V29I, A34H, A51T, G84A
notes: as for B1
B27: VH SEQ ID NO 586 / VL SEQ ID NO 390 (antibody, IgG4, V domains shown)
VH: B1 VH with P111Y
VL: B1 VL with Q42E, G84A
notes: as for B1
B28: VH SEQ ID NO 586 / VL SEQ ID NO 454 (antibody, IgG4, V domains shown)
VH: B1 VH with P111Y
VL: B1 VL with A34H, Q42E, G84A
notes: as for B1
B29: VH SEQ ID NO 594 / VL SEQ ID NO 454 (antibody, IgG4, V domains shown)
VH: B1 VH with G45K
VL: B1 VL with A34H, Q42E, G84A
notes: as for B1
B30: VH SEQ ID NO 586 / VL SEQ ID NO 438 (antibody, IgG4, V domains shown)
VH: B1 VH with P111Y
VL: B1 VL with F83V, G84A
notes: as for B1
B31: VH SEQ ID NO 586 / VL SEQ ID NO 470 (antibody, IgG4, V domains shown)
VH: B1 VH with P111Y
VL: B1 VL with A34H, G84A
notes: as for B1
B32: VH SEQ ID NO 586 / VL SEQ ID NO 350 (antibody, IgG4, V domains shown)
VH: B1 VH with P111Y
VL: B1 VL with V29I, A34H, A51T, G84A, Q100A, I106L
notes: as for B1
B33: VH SEQ ID NO 578 / VL SEQ ID NO 462 (antibody, IgG4, V domains shown)
VH: B1 VH
VL: B1 VL with A34H, G84A, Q100A
notes: as for B1
B34: VH SEQ ID NO 578 / VL SEQ ID NO 470 (antibody, IgG4, V domains shown)
VH: B1 VH
VL: B1 VL with A34H, G84A
notes: as for B1
B35: VH SEQ ID NO 602 / VL SEQ ID NO 318 (antibody, IgG4, V domains shown)
VH: B1 VH with D16Q, A23T, Y27G, M70I, L89A, P111Y
VL: B1 VL with V29I, A34H, Q42E, A51T, G84A
notes: as for B1
B36: VH SEQ ID NO 586 / VL SEQ ID NO 478 (antibody, IgG4, V domains shown)
VH: B1 VH with P111Y
VL: B1 VL with A34H, G84A, N90Q
notes: as for B1
B37: VH SEQ ID NO 594 / VL SEQ ID NO 334 (antibody, IgG4, V domains shown)
VH: B1 VH with G45K
VL: B1 VL with V29I, A34H, G84A
notes: as for B1
B38: VH SEQ ID NO 594 / VL SEQ ID NO 502 (antibody, IgG4, V domains shown)
VH: B1 VH with G45K
VL: B1 VL with A34H, A51T, G84A
notes: as for B1
B39: VH SEQ ID NO 586 / VL SEQ ID NO 486 (antibody, IgG4, V domains shown)
VH: B1 VH with P111Y
VL: B1 VL with A34H
notes: as for B1
B40: VH SEQ ID NO 594 / VL SEQ ID NO 494 (antibody, IgG4, V domains shown)
VH: B1 VH with G45K
VL: B1 VL with A34H, F83V, G84A
notes: as for B1
B41: VH SEQ ID NO 594 / VL SEQ ID NO 462 (antibody, IgG4, V domains shown)
VH: B1 VH with G45K
VL: B1 VL with A34H, G84A, Q100A
notes: as for B1
B42: VH SEQ ID NO 594 / VL SEQ ID NO 470 (antibody, IgG4, V domains shown)
VH: B1 VH with G45K
VL: B1 VL with A34H, G84A
notes: as for B1
B43: VH SEQ ID NO 594 / VL SEQ ID NO 350 (antibody, IgG4, V domains shown)
VH: B1 VH with G45K
VL: B1 VL with V29I, A34H, A51T, G84A, Q100A, I106L
notes: as for B1
B44: VH SEQ ID NO 578 / VL SEQ ID NO 478 (antibody, IgG4, V domains shown)
VH: B1 VH
VL: B1 VL with A34H, G84A, N90Q
notes: as for B1
B45: VH SEQ ID NO 578 / VL SEQ ID NO 502 (antibody, IgG4, V domains shown)
VH: B1 VH
VL: B1 VL with A34H, A51T, G84A
notes: as for B1

Each binder was assayed against T1, recombinant human activated Factor VII … (assay: BLI (Fortebio)).

Row | Binder | Kd [nM]
1 | B1 | 820
2 | B2 | 17
3 | B3 | 11
4 | B4 | 23
5 | B5 | 23
6 | B6 | 18
7 | B7 | 140
8 | B8 | 200
9 | B9 | 33
10 | B10 | 28
11 | B11 | 1500
12 | B12 | 25
13 | B13 | 21
14 | B14 | 25
15 | B15 | 22
16 | B16 | 9.8
17 | B17 | 9.9
18 | B18 | 15
19 | B19 | 17
20 | B20 | 13
21 | B21 | 19
22 | B22 | 48
23 | B23 | 120

Row | Binder | Kd [nM]
24 | B24 | 18
25 | B25 | 13
26 | B26 | 24
27 | B27 | 38
28 | B28 | 16
29 | B29 | 32
30 | B30 | 23
31 | B31 | 15
32 | B32 | 12
33 | B33 | 27
34 | B34 | 25
35 | B35 | 9
36 | B36 | 27
37 | B37 | 32
38 | B38 | 30
39 | B39 | 18
40 | B40 | 43
41 | B41 | 39
42 | B42 | 35
43 | B43 | 34
44 | B44 | 310
45 | B45 | 24
